Experimental data from patent publication US20010023062A1.

Tests used:
[1] = target: IL-5Rα/IFNaR1 + βc/IFNaR2-2 (human) (UniProt Q01344); assay: cell-based or functional assay
[2] = target: IL-5Rα/IFNaR2-2 + βc/IFNaR1 (human) (UniProt Q01344); assay: cell-based or functional assay

| Substance | colonies in HAT + IL-5 (6-16 gpt selection, transfected 2fTGH cells, 1 ng/ml IL-5) [1] [colonies] | SEAP activity (6-16SEAP reporter, transient transfection of 2fTGH cells), 1 ng/ml IL-5, against untreated cells [2] [fold] | SEAP activity (6-16SEAP reporter, transient transfection of 2fTGH cells), 2 ng/ml IL-5, against untreated cells [2] [fold] | colonies in HAT + IL-5 (6-16 gpt selection, transfected 2fTGH cells, 1 ng/ml IL-5) [2] [colonies] | colonies surviving in HAT medium without added IL-5 (clone C cells transfected with pEFBOS-hIL-5syn) [2] [colonies] |
| --- | --- | --- | --- | --- | --- |
| IL-5 (produced in Sf9 cells using published methodologies) (from UniProt P05113 20-134) (ligand) | 3 | 5 | 6 | 13 |  |
| hIL-5syn (human IL-5 expressed by the cells from pEFBOS-hIL-5syn or pMET7-hIL-5syn) (from UniProt P05113 20-134) (ligand) |  |  |  |  | 6 |
